These are literature values, as cited in PMC2846785.

The data set relates to Cys.

Regarding “Arylamine N-acetyltransferase 2 (hamster NAT2) (Mesocricetus auratus (Syrian hamster))”, the pKa is 5.23 ± 0.03.

Usually pKa stands for the negative logarithm of the acid dissociation constant.
